# T1: CHMP3 (human, UniProt Q9Y3E7 1-222)
# T1 sequence (looked up): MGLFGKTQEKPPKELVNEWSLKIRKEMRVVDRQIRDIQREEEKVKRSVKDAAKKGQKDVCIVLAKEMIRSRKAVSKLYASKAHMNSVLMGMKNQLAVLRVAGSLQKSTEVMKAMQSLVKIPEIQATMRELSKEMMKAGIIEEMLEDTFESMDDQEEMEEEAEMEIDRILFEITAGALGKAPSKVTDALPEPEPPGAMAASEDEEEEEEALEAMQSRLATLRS
# B1: CHMP2A (natural protein, human, UniProt O43633 1-222, looked up)
# chain: MDLLFGRRKTPEELLRQNQRALNRAMRELDRERQKLETQEKKIIADIKKMAKQGQMDAVRIMAKDLVRTRRYVRKFVLMRANIQAVSLKIQTLKSNNSMAQAMKGVTKAMGTMNRQLKLPQIQKIMMEFERQAEIMDMKEEMMNDAIDDAMGDEEDEEESDAVVSQVLDELGLSLTDELSNLPSTGGSLSVAAGGKKAEAAASALADADADLEERLKNLRRD
# Target: T1, CHMP3
# Test: negative-stain electron microscopy
binder,measurement,value
B1,binding result,binds
